Measured values from paper PMC3044691 (2011).

Molecular target: monomeric sCD4 (D1D2)
Assay: SPR

B1: JR-FL gp120 (natural protein)
chain: not shown
Question: B1 was tested. Which Kd did it give?
Answer: 12 nM
